How the values were obtained:
MS2 coat protein [1] = test: apparent KD of MS2 coat protein, switch OFF state (with FMN for OFF switches, without FMN for ON switches); designed switch direction (-1 OFF switch, 1 ON switch): -1; higher = weaker reporter binding; settings: FMN input: 0 or 200 uM; Eterna round: R93 (includes R88 designs)
In short: (§1)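 Illumina sequencing clusters were used for on-chip transcription of designed RNA switches. Titration with SNAP-549-labelled MS2 coat protein followed, in twofold steps from 0.7 or 1.5 nM to 3 µM in 100 mM Tris-HCl pH 7.5, 80 mM KCl, 4 mM MgCl2, without or with constant ligand. Apparent KD is each design's median of fits to normalised cluster binding curves.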

MS2 coat protein [2] = test: apparent KD of MS2 coat protein, switch ON state; designed switch direction (-1 OFF switch, 1 ON switch): -1; higher = weaker reporter binding; settings: FMN input: 0 or 200 uM; Eterna round: R93 (includes R88 designs)
In short: as §1

Row | Sequence | apparent KD of MS2 coat protein (MS2 coat protein [1]) | apparent KD of MS2 coat protein (MS2 coat protein [2])
1 | AAAAAACAUGAGGAUCACCCAUGUGAGGAUAUGCUAAAAAAAUCCGCAUGAAAAAAUAGCAGAAGGCACAUAAA [PK2] | 52.5 nM | 29.6 nM
2 | AAAAAGUCAGGAUAUGUGGAAAAAAUAAAAAAAAUAAAAACACAGAAGGGACAUGAGGAUCACCCAUGUUAAAA [Ex 4 May 18] | 35.1 nM | 45.4 nM
3 | AGCUGGUCAGGAUAUGCGUGAAGAAUAAAACAAAUAACAACGCAGAAGGGACAUGAGGAUCACCCAUGUCAGCA [May 50] | 20.3 nM | 23.9 nM
4 | AAGAAGGCAGGAUAUACAAAAUAAAAGAAAAGAAAGAAAGAACAUGAGGAUCACCCAUGUAGAAGGGCCAAGAA [Seankhibre Amenemhet VI] | 37.2 nM | 58.3 nM
5 | CAAUCUGCAGGAUAUACAUGAGGAUCACCCAUGUAAGGACAAUAAAUAAGAAGAAGAAGUAGAAGGGCAGACAA [e3] | 29.2 nM | 27.5 nM
6 | AAAAAGUGAGGAUAUUCGGAUAGGAAAACGAAAACCUAUCCGAAGAAGGCACAUGAGGAUCACCCAUGUAAAGA [Mat - Exaclusion 4 - Eli mod - D40] | 40.2 nM | 30.8 nM
7 | AAGAGGUCAGGAUAUGCCCACCAGGAAAAACGUCCAGGUGGGCAGAAGGGACAUGAGGAUCACCCAUGUAAAGA [Opal 41] | 114 nM | 44.8 nM
8 | AAAAAACAUGAGGAUCACCCAUGUGAGGAUAUGAUGAAAGAUUGAAAAAGGUUGAAAGUCAGAAGGUAUGUGAA [Exclusion 1.3] | 35.7 nM | 30.4 nM
9 | AAAAAACAUGAGGAUCACCCAUGUCAGGAUAUCGAAAAGAAAAGAAAAGAAAGAAGAACGAGAAGGGACAAGAA [Menkaura] | 24.5 nM | 29.3 nM
10 | GAAUGUCUAGGAUAUACAUGAGGAUCACCCAUGUGUAAAAAUAAAUACACAAAAGAAAGUAGAAGGAGACAAAG [Mat - Exclusion 3 - Mayanna mod - D122] | 46.5 nM | 28.5 nM
11 | GGAAAACAUGAGGAUCACCCAUGUAAGGAUAUGCUAAAAAAAAAAAAAAACCCACCAGGCAGAAGGUACUAAAG [Janelle Amethyst 18 Mod 2 - Jieux - Exclusion 1] | 26.8 nM | 20.4 nM
12 | AGGAAACAUGAGGAUCACCCAUGUGAGGAUAUUGAAAAGAAAAGAAAAGAAAGAAGAACAAGAAGGUACAAGAA [Nyuserre Ini] | 27.3 nM | 22.3 nM
13 | AAAAAACAUGAGGAUCACCCAUGUAAGGAUAUGCUGAAAAAACACUGGAAACAGUGCAGCAGAAGGUACAAAAA [66%, Wbt, 35] | 27.2 nM | 21.5 nM
14 | CAAAAGCUAGGAUAUGCUAAUUGUUCCUUAAGUCAAAAUAAACAUGAGGAUCACCCAUGUAGAAGGAGCCCACA [Tegean] | 16.9 nM | 31.5 nM
15 | AGCUAGUCAGGAUAUACGAAAAUGCUAGAAGACGUAAGGGAACAUGAGGAUCACCCAUGUAGAAGGGACUAGCA [Diamond 46] | 30.4 nM | 21.9 nM
16 | AAGAGGUGAGGAUAUCGAAGAAGAAGAAGAAGAAGAAGAAACGAGAAGGCACAUGAGGAUCACCCAUGUAAGAA [Exclusion 4] | 18.8 nM | 23.4 nM
17 | AAAAAGGGAGGAUAUACAUGAGGAUCACCCAUGUAUCAGACGAAAAAGAGUCUGAAAUGUAGAAGGCCCAAAAA [65%, Moding Exclusion3-cac2, 2] | 35.8 nM | 20.7 nM
18 | AAAAAACAUGAGGAUCACCCAUGUAAGGAUAUGCUCGUGCGAAAAAGCACAAAAAAGAGCAGAAGGUACAAAAA [66%, Wbt, 40] | 34.4 nM | 18.8 nM
19 | AACAGUACAGGAUAUACAUGAGGAUCACCCAUGUGAAAAUUAAGUGGGAAACCACAGUGUAGAAGGGUACUGGA [Mat - Exclusion 3 - Eli mod - D54] | 51.9 nM | 102 nM
20 | AGCUAGUGAGGAUAUACGAACAUGUCAAAAGACGUGAAGGGACAUGAGGAUCACCCAUGUAGAAGGCGCUAGCA [JL 74% mod] | 157 nM | 53.4 nM
21 | AACAGUACAGGAUAUACAUGAGGAUCACCCAUGUGAGAAUUAAGUGGAGAACCACAAAGUAGAAGGGUACUGAA [Mat - Exclusion 3 - JL mod - D8] | 147 nM | 39.2 nM
22 | CUCAAGUGAGGAUAUAUAAGAAAAGAAGAGAAAGAAAAGAAAUAGAAGGCACAUGAGGAUCACCCAUGUAAGAA [EteRNA is fun!] | 24.1 nM | 29.5 nM

Row | Sequence | apparent KD of MS2 coat protein (MS2 coat protein [1]) | apparent KD of MS2 coat protein (MS2 coat protein [2])
23 | AAAAAGUGAGGAUAUACGCUGAGGAGUAGACACAACCUGGCGUAGAAGGCACAUGAGGAUCACCCAUGUCCAAA [EX4 Malc#12] | 41.5 nM | 24.3 nM
24 | AACAGUACAGGAUAUACAUGAGGAUCACCCAUGUGAAAGAAAAGUGGCGUACCACAAAGUAGAAGGGUACUGGA [Mat - Exclusion 3 - JL mod - D23] | 122 nM | 26.9 nM
25 | AAGUUAUUAGGAUAUACUAGUGCAAUUAAUACGCUGAUAGUACAUGAGGAUCACCCAUGUAGAAGGAAUAAAAA [Mat - Exclusion 2 - JL mod - D66] | 20.6 nM | 30.5 nM
26 | AACUGGGCAGGAUAUACAUGAGGAUCACCCAUGUAAAGAAAAGAAAGGUCCGAGGAAAGUAGAAGGGCCUGGAA [Variant 5 of Mod 1 of Ex3 sub 3, by Tesla's Dusciple Round 1] | 38.9 nM | 40.6 nM
27 | AAAAAACAUGAGGAUCACCCAUGUUAGGAUAUUCCUAAAAAAAAAAAAAAAAAAAAUGGAAGAAGGGACAAAAA [excalibur 9] | 20.6 nM | 21.2 nM
28 | GCUGGCCAAGGAUAUACAUGAGGAUCACCCAUGUGAGAGAAAAAAGUGAGAAAGAAAAGUAGAAGGUGGGUAGG [salish99-ex3-111] | 56.9 nM | 59 nM
29 | GAGGCUGAAGGAUAUACAAGGGCCUCACCGCCAAAACGGAAACAUGAGGAUCACCCAUGUAGAAGGUCAAUAAA [Reisvexe] | 77 nM | 57.1 nM
30 | AACAGGACAGGAUAUACAUGAGGAUCACCCAUGUGAAGAUUAAGAAGAAACCCACAAAGUAGAAGGGUCCUGGA [Ruby 93] | 51 nM | 25 nM
31 | AAGAACAGAGGAUAUACUAAAGAAAUGAAAAGAAAGAAAGAACAUGAGGAUCACCCAUGUAGAAGGCUGAAGAA [Yakbim Sekhaenre] | 13.5 nM | 25.9 nM
32 | GAAAAUGGAGGAUAUACAUGAGGAUCACCCAUGUGUAAAAAAAAUUACACAAAAGAAAGUAGAAGGCCAUAAAG [Mat - Exclusion 3 - Mayanna mod - D106] | 138 nM | 49.8 nM
33 | AGUUGGCGAGGAUAUACAUGAGGAUCACCCAUGUAAAAUAAAUAAAAAAGGGAAGAAAGUAGAAGGCGCUGACA [73%, Moding Norbert Elias, 11] | 175 nM | 40.5 nM
34 | AGCAAGUGAGGAUAUCUGGAUAGGAAAAAGAAAACCUAUCCAGAGAAGGCACAUGAGGAUCACCCAUGUAAAAA [JL cataway mod 7] | 41.4 nM | 39.1 nM
35 | AACAUGUCAGGAUAUGUAGCAAAAAGUGAUCCAAAAAAGCUACAGAAGGGACAUGAGGAUCACCCAUGUAAAAA [Ex4: 933] | 44.5 nM | 124 nM
36 | CCUGUGUGAGGAUAUGGUAAAAAAAAAAAAAAAAAGCUCCUCCAGAAGGCACAUGAGGAUCACCCAUGUCGUGG [Jolly's Folly 15 - Jieux - Exclusion 4] | 38.2 nM | 18.9 nM
37 | AAGUUAUUAGGAUAUACUAGUGCGAUUAAUACGCUGAUAGUACAUGAGGAUCACCCAUGUAGAAGGAAUAAAAA [JR_Exc002_Sub409] | 19.1 nM | 35.1 nM
38 | ACAGUUAGAGGAUAUACGUGGAAAAAUAAAAAUAAAAAACUACAUGAGGAUCACCCAUGUAGAAGGCUAACUGA [Ex2 Design 196: Random 12E] | 66.1 nM | 24.8 nM
39 | AACUGACAUGAGGAUCACCCAUGUCAGGAUAUGACAUCGAAAAAAAAAAAAAUCGUUGUCAGAAGGGACAUGAA [Design 77: Sub-opt SB] | 13.1 nM | 16.7 nM
40 | AGUCUGAGAGGAUAUACAUGGGAAAAAAAAGUCAGAUCCCUACAUGAGGAUCACCCAUGUAGAAGGCUCUGACA [Ex2 Design 147: Sub-opt 11] | 11.4 nM | 22.2 nM
41 | AUCUAGUCAGGAUAUGACUACAUAAAAAAUAAAAAAUGUAGUCAGAAGGGACAUGAGGAUCACCCAUGUACUAA [Mat - Exclusion 4 - Eli mod - D95] | 29.3 nM | 26.3 nM
42 | AAGAAGUGAGGAUAUAGUUGCACUAGCUAAUGCUAGUGCAACUAGAAGGCACAUGAGGAUCACCCAUGUAAAAG [Meechl Ex4 2] | 46.7 nM | 40.6 nM
43 | AAGAAGUCAGGAUAUGCCAGAGAUCACGAAAGUGACGAGUAGCAGAAGGGACAUGAGGAUCACCCAUGUAAAGA [Opal 7] | 45 nM | 39.8 nM
44 | AACUGACAUGAGGAUCACCCAUGUCAGGAUAUGCUUCAUAAAAAAAAAAAAAAAUGAUGCAGAAGGGAUAUGGA [Design 36 :P Sub-opt 12] | 13.6 nM | 21.5 nM

Source: the supplement of paper PMC9170038
